The source of these data is article PMC8260793, “A split protease-E. coli ClpXP system quantifies protein–protein interactions in Escherichia coli cells” (Communications Biology, 2021).

B1: Cas3 of E. coli K12 Type I-E CRISPR/Cas complex [E. coli K12] / Cas1 of E. coli K12 Type I-E CRISPR/Cas complex [E. coli K12] (parent complex)
chain 1: MEPFKYICHYWGKSSKSLTKGNDIHLLIYHCLDVAAVADCWWDQSVVLQNTFCRNEMLSKQRVKAWLLFFIALHDIGKFDIRFQYKSAESWLKLNPATPSLNGPSTQMCRKFNHGAAGLYWFNQDSLSEQSLGDFFSFFDAAPHPYESWFPWVEAVTGHHGFILHSQDQDKSRWEMPASLASYAAQDKQAREEWISVLEALFLTPAGLSINDIPPDCSSLLAGFCSLADWLGSWTTTNTFLFNEDAPSDINALRTYFQDRQQDASRVLELSGLVSNKRCYEGVHALLDNGYQPRQLQVLVDALPVAPGLTVIEAPTGSGKTETALAYAWKLIDQQIADSVIFALPTQATANAMLTRMEASASHLFSSPNLILAHGNSRFNHLFQSIKSRAITEQGQEEAWVQCCQWLSQSNKKVFLGQIGVCTIDQVLISVLPVKHRFIRGLGIGRSVLIVDEVHAYDTYMNGLLEAVLKAQADVGGSVILLSATLPMKQKQKLLDTYGLHTDPVENNSAYPLINWRGVNGAQRFDLLAHPEQLPPRFSIQPEPICLADMLPDLTMLERMIAAANAGAQVCLICNLVDVAQVCYQRLKELNNTQVDIDLFHARFTLNDRREKENRVISNFGKNGKRNVGRILVATQVVEQSLDVDFDWLITQHCPADLLFQRLGRLHRHHRKYRPAGFEIPVATILLPDGEGYGRHEHIYSNVRVMWRTQQHIEELNGASLFFPDAYRQWLDSIYDDAEMDEPEWVGNGMDKFESAECEKRFKARKVLQWAEEYSLQDNDETILAVTRDGEMSLPLLPYVQTSSGKQLLDGQVYEDLSHEQQYEALALNRVNVPFTWKRSFSEVVDEDGLLWLEGKQNLDGWVWQGNSIVITYTGDEGMTRVIPANPK
chain 2: MTWLPLNPIPLKDRVSMIFLQYGQIDVIDGAFVLIDKTGIRTHIPVGSVACIMLEPGTRVSHAAVRLAAQVGTLLVWVGEAGVRVYASGQPGGARSDKLLYQAKLALDEDLRLKVVRKMFELRFGEPAPARRSVEQLRGIEGSRVRATYALLAKQYGVTWNGRRYDPKDWEKGDTINQCISAATSCLYGVTEAAILAAGYAPAIGFVHTGKPLSFVYDIADIIKFDTVVPKAFEIARRNPGEPDREVRLACRDIFRSSKTLAKLIPLIEDVLAAGEIQPPAPPEDAQPVAIPLPVSLGDAGHRSS
B2: Cas3 of E. coli K12 Type I-E CRISPR/Cas complex [E. coli K12] / Cas8 of E. coli K12 Type I-E CRISPR/Cas complex [E. coli K12] (parent complex)
chain 1: B1 chain 1
chain 2: MNLLIDNWIPVRPRNGGKVQIINLQSLYCSRDQWRLSLPRDDMELAALALLVCIGQIIAPAKDDVEFRHRIMNPLTEDEFQQLIAPWIDMFYLNHAEHPFMQTKGVKANDVTPMEKLLAGVSGATNCAFVNQPGQGEALCGGCTAIALFNQANQAPGFGGGFKSGLRGGTPVTTFVRGIDLRSTVLLNVLTLPRLQKQFPNESHTENQPTWIKPIKSNESIPASSIGFVRGLFWQPAHIELCDPIGIGKCSCCGQESNLRYTGFLKEKFTFTVNGLWPHPHSPCLVTVKKGEVEEKFLAFTTSAPSWTQISRVVVDKIIQNENGNRVAAVVNQFRNIAPQSPLELIMGGYRNNQASILERRHDVLMFNQGWQQYGNVINEIVTVGLGYKTALRKALYTFAEGFKNKDFKGAGVSVHETAERHFYRQSELLIPDVLANVNFSQADEVIADLRDKLHQLCEMLFNQSVAPYAHHPKLISTLALARATLYKHLRELKPQGGPSNG
B3: Cas3 of E. coli K12 Type I-E CRISPR/Cas complex [E. coli K12] / Cas5 of E. coli K12 Type I-E CRISPR/Cas complex [E. coli K12] (parent complex)
chain 1: B1 chain 1
chain 2: MRSYLILRLAGPMQAWGQPTFEGTRPTGRFPTRSGLLGLLGACLGIQRDDTSSLQALSESVQFAVRCDELILDDRRVSVTGLRDYHTVLGAREDYRGLKSHETIQTWREYLCDASFTVALWLTPHATMVISELEKAVLKPRYTPYLGRRSCPLTHPLFLGTCQASDPQKALLNYEPVGGDIYSEESVTGHHLKFTARDEPMITLPRQFASREWYVIKGGMDVSQ
B4: Cas3 of E. coli K12 Type I-E CRISPR/Cas complex [E. coli K12] / Cas7 of E. coli K12 Type I-E CRISPR/Cas complex [E. coli K12] (parent complex)
chain 1: B1 chain 1
chain 2: MSNFINIHVLISHSPSCLNRDDMNMQKDAIFGGKRRVRISSQSLKRAMRKSGYYAQNIGESSLRTIHLAQLRDVLRQKLGERFDQKIIDKTLALLSGKSVDEAEKISADAVTPWVVGEIAWFCEQVAKAEADNLDDKKLLKVLKEDIAAIRVNLQQGVDIALSGRMATSGMMTELGKVDGAMSIAHAITTHQVDSDIDWFTAVDDLQEQGSAHLGTQEFSSGVFYRYANINLAQLQENLGGASREQALEIATHVVHMLATEVPGAKQRTYAAFNPADMVMVNFSDMPLSMANAFEKAVKAKDGFLQPSIQAFNQYWDRVANGYGLNGAAAQFSLSDVDPITAQVKQMPTLEQLKSWVRNNGEA
B5: Cas3 of E. coli K12 Type I-E CRISPR/Cas complex [E. coli K12] / Cas11 of E. coli K12 Type I-E CRISPR/Cas complex [E. coli K12] (parent complex)
chain 1: B1 chain 1
chain 2: MADEIDAMALYRAWQQLDNGSCAQIRRVSEPDELRDIPAFYRLVQPFGWENPRHQQALLRMVFCLSAGKNVIRHQDKKSEQTTGISLGRALANSGRINERRIFQLIRADRTADMVQLRRLLTHAEPVLDWPLMARMLTWWGKRERQQLLEDFVLTTNKNA
B6: Cas3 of E. coli K12 Type I-E CRISPR/Cas complex [E. coli K12] / Cas2 of E. coli K12 Type I-E CRISPR/Cas complex [E. coli K12] (parent complex)
chain 1: B1 chain 1
chain 2: MSMLVVVTENVPPRLRGRLAIWLLEVRAGVYVGDVSAKIREMIWEQIAGLAEEGNVVMAWATNTETGFEFQTFGLNRRTPVDLDGLRLVSFLPV
B7: Cas3 of E. coli K12 Type I-E CRISPR/Cas complex [E. coli K12] / Cas6 of E. coli K12 Type I-E CRISPR/Cas complex [E. coli K12] (parent complex)
chain 1: B1 chain 1
chain 2: MYLSKVIIARAWSRDLYQLHQGLWHLFPNRPDAARDFLFHVEKRNTPEGCHVLLQSAQMPVSTAVATVIKTKQVEFQLQVGVPLYFRLRANPIKTILDNQKRLDSKGNIKRCRVPLIKEAEQIAWLQRKLGNAARVEDVHPISERPQYFSGDGKSGKIQTVCFEGVLTINDAPALIDLVQQGIGPAKSMGCGLLSLAPL

The variants in one test derive from B1. The test is described as follows: SPEC system (split protease-E. coli ClpXP) in E. coli cells; parent: 100; read off a plot.
chain 1 D452N: the percent of parent is about 130%. Still for that read-out and setting: the result for chain 1 S483A, chain 1 T485A reads about 110%. Still for that read-out and setting: the result for chain 1 K320N reads about 120%; that for chain 1 K78A, about 50%.

Regarding chain 1 H74A, the percent of parent was about 60%.

Variants of B2 are the subject of a further test. The test is described as above.
Take chain 1 H74A: the percent of parent is about 82%. On the same count and under the same terms, the result for chain 1 S483A, chain 1 T485A reads about 97%; that for chain 1 K320N, about 83%.

In a further test the parent is B3. Described as above.
Regarding chain 1 H74A, the percent of parent was about 45%. Same read-out and setting: the result for chain 1 D452N reads about 110%; that for chain 1 K78A, about 67%.

The variants in another test derive from B4. The description is as above.
Turning to chain 1 S483A, chain 1 T485A, the percent of parent was about 25%. Same read-out and setting: the result for chain 1 D452N reads about 120%.

Take chain 1 K320N: the percent of parent is about 120%. Same read-out and setting: as for chain 1 K78A, the figure is about 73%.

In the next test the parent is B5. Described as above.
Consider chain 1 H74A, for which the percent of parent is about 110%. On the same count and under the same terms, as for chain 1 K78A, the figure is about 110%. On the same count and under the same terms, as for chain 1 S483A, chain 1 T485A, the figure is about 73%.

The variants in another test derive from B6. The test is described as above.
chain 1 K78A: the percent of parent was about 110%. Same read-out and setting: as for chain 1 K320N, the figure is about 130%; as for chain 1 H74A, about 130%.

Turning to chain 1 D452N, the percent of parent was about 130%.

A further test covers variants of B7. The description is as above.
With chain 1 H74A, the percent of parent was about 150%. Same read-out and setting: as for chain 1 D75A, the figure is about 110%.

Take chain 1 S483A, chain 1 T485A: the percent of parent is about 130%.

Turning to chain 1 D452N, the percent of parent is about 140%. As to chain 1 K78A, the percent of parent was about 95%. Still for that read-out and setting: the result for chain 1 K320N reads about 120%.
